Assay: soluble on expression in E. coli; label from the status in PepcDB or PDB records

Sequence	soluble on expression in E. coli
MTTNEEFIRTQIFGTVFEITNRYNDLNPVGMGAFGLVCSATDTLTSQPVAIKKIMKPFSTAVLAKRTYRELKLLKHLRHENLICLQDIFLSPLEDIYFVTELQGTDLHRLLQTRPLEKQFVQYFLYQILRGLKYVHSAGVIHRDLKPSNILINENCDLKICDFGLARIQDPQMTGYVSTRYYRAPEIMLTWQKYDVEVDIWSAGCIFAEMIEGKPLFPGKDHVHQFSIITDLLGSPPKDVINTICSENTLKFVTSLPHRDPIPFSERFKTVEPDAVDLLEKMLVFDPKKRITAADALAHPYSAPYHDPTDEPVADAKFDWHFNDADLPVDTWRVMMYSEILDFHKIGGSDGQIDISATFDDQVAAATAAAAQAQAQAQAQVQLNMAAHSHNGAGTTGNDHSDIAGGNKVSDHVAANDTITDYGNQAIQYANEFQQ	soluble
MAHHHHHHMQRHTVEKKLQRSTHAAECHTDVAVVRLPHVQREVRQRLVHHAARVAVDSSLRQGRHNRVGHLKGKTRRAMPSVPAAARARVAVHRLRPGHVARRVVVARAAPEHHHALRKHTVVQHLPPFLVQVAPHHKPRGRRHNRVRWKKFGKGCTSFHLTVVCKHHSGAAARQLNFLLRTWHT	not soluble
MIHLEHINLVVDDIPKALIFYQAAFPHWRIRGGGESTWYSKPRNWTHFGDDYQYIAFSDNGEGENRDLTGHQIGLAHFAFVVSDLDAIITRLTQAGFPIAKEGMEDPYRRNIYFFDAHGFEVEFVEYLSDIPAERNRYLEHHHHHH	soluble
GPGSMVRSSSSSSAPLWKNQGGGSATAGAVASTTSPWLLRQLALAHFHNGDIQESADAFEQLLRTAPWELTNPALIFYSTALWHLKSESALGSLAQRLTDAEPLSATTLCVVANAYSLIKDPRDALVMLKRAVQVAPTLAYAHALHGYELLGQDSKAEAEAEFKAALAVDASLYIAYAGLGERFMREEQIDKARGYYKEAVKLNPTPAIVNRFALTYHRQGKSLADLKTALRLYTESLERHPNNVTARRQRADVLLRLDQPMQALEELKALLVQCPGEAVVYVTLAECMVCLRRPHEALQHYQTAMHLDPRRESYVQGCIDQLVAANML	soluble
GALRSLVLIGHGSHHHGESARATQQVAEALRGRGLAGHLPYDEVLEGYWQQEPGLRQVLRTVAYSDVTVVPVFLSEGYVTETVLPRELGLGHQGPVPTGGVVRVLGGRRVRYTRPLGAHPGMADAIAAQARDTLPEGTDPADVTLLLLAARPGNAALETHAQALRERGQFAGVEVVLESREALTPESHAASAVPLSEWPSRVEAGQAVLVPFLTHLGKHAAERLQQALAQAAERFPQAPPLHVGGPVGEHPAVAEVVLALAAEGREDERGGDIDQAHAEAWAALRHLAERGGRLGEVLLTPYGGLFELRHTLDEGRATLDLQTVVTPEGLRDLTARDEAGRWRPIRTWRTLPRGWRAVLSPADLRLGLELLYPAVIEESYAHEHRRLHWTPWMSTARRQTGTLARVQRATPDQVDTVAAQVCASCLRTRLWAGHTLGQTIFSGVPGGLPCAEACTVLLAAVRDEVGREAMGSGD	soluble
MLLQLAEDRRRLKGVQSTVKKAEIKVELLPKYAAWAEGVLAAGGAQQDDVLMYVMLWRIDAGDYAGALEIGRHALRHGWVMPLGNRNVQTVLAEEMADAAQSAMLATTGFDVDLLLQTLELTDGLDMPDQSRARLHKAIGAVLSESNPASALNHLNHALQLDPRCGVKKDKQQLERRLRNDSR	not soluble
MVERMERTMPTTAVRDATSSRRFQPGQAVVGRVERVEEMETEERAALVRAGGQLVRARLEAPLAVGRLYLFEIHERQGTIYWKAIPLSEPASAPSGEEAVRGWQKAWKLPDAALPVLRQALKAGAAATKEEIAALTEAVKETGQPDAAEDVLAHLFRRRLPFSSAVFRALWAAKTGVPLAEGLGKLKAAIAALSAHPAALKLIRAMEKFLSPPLSAYEAAVRLLLSGEEEAETARALLARLGLAPLPEDRRLALREAVQCRRFADIIRQLGLTDEEAFLERWAALDAAYQSGALPAAEAKLWAAARATRDPALSLFCWLRRAAVRLGLEDEAALVRVGKIEDLPSAPSLKRLLLRFLHESGSEGAKRAAEAILDQLDGMAIAAGGDGLIEHVWISFPLPLGGRSSDFAVCWQGRRKQGGPLDADYNRIVCCLTLEELGEVIVDMRVQRRIVHISIFHDDPRLAVAAARMAPLVKERFQAHGYALSGIDVKATRSAPPPPSVFLFADSCSEVDCQA	not soluble
MILIGDSGSTKTDWCIAKEGKSLGRFQTSGINPFQQDRNEIDTALRSEVLPAIGQKASSIRAVYFYGAGCTPAKAPMLNEALDSMLPHCDRIEVAGDMLGAARALCGDSEGIACILGTGSNSCLFDGREIKANVSPLGYILGDEGSGAVLGRLFIGSLLKGQMPEGLCEAFLQEYGLTSADIIESVYRKPFPNRFLAGFSPFIAQHLDIPAVYSLVQNSFDDFLVRNVLRYNRPDLPLHFIGSVAFHYREVLSSVIKKRGLTLGSVLQSPMEGLIQYHHNNHVLEHHHHHH	soluble
MEFFGETWRRELAAEFEKPYFKQLMSFVADERSRHTVYPPADQVYSWTEMCDIQDVKVVILGQDPYHGPNQAHGLCFSVQKPVPPPPSLVNIYKELCTDIDGFKHPGHGDLSGWAKQGVLLLNAVLTVRAHQANSHKDRGWETFTDAVIKWLSVNREGVVFLLWGSYAHKKGATIDRKRHHVLQAVHPSPLSAHRGFLGCKHFSKANGLLKLSGTEPINWRAL	soluble
MNELKNAQTASAHRILLPLLRCIASGAADVTEEGNEIVLRRKRPGQAVQRFPTETVRLAVSSGLLEWRQNSLSAAPPLASYLKRATAKDRDEVFQEQHRDIQTVVVEIDETKQPARRNLNTAPLTSLSRLKERDGSAFFPEDALAAGERLAADFHRGHLNPRVTATWEPRIASRGKGEAGGALDLTEAAMAARARFSRAADAMGPELSGVAIDICCFEKGLETVERERLWPARSAKLLLRAALLSLARHYAPPVPPARGKDRPKERHWGDADYRPSLR	not soluble
MEERILDRLAALDPDLMAYIRDFAYDTVYERPGLDLKTKELLASVLLVSLGSPDELKTHLRGALRAGATEQEVREALLLCVPYLGFPRTVAAFSQLQS	soluble
MMKAKVIDAVSFSYILRTVGDFLSEANFIVTKEGIRVSGIDPSRVVFLDIFLPSSYFEGFEVSQEKEIIGFKLEDVNDILKRVLKDDTLILSSNESKLTLTFDGEFTRSFELPLIQVESTSPPSVNLEFPFKAQLLTITFADIIDELSDLGEVLNIHSKENKLYFEVIGDLSTAKVELSTDNGTLLEASGADVSSSYGMEYVANTTKMRRASDSMELYFGSQIPLKLRFKLPQEGYGDFYIAPRAD	soluble
MGSDKIHHHHHHMPEFMKPIHSVILIQNLQARIETCAEMAVNVFQNLNTASLLCPSNTGGWSIVQCLDHLNSYGDYYLPHIQKAFDTHMPGKPAEDVKSSWLGNYFTQLMLPDSGKKYKAFKKHIPKPRLDSAAVVATFIEQQEILLTYLEKAKKYDMNTIRISISIAPFIKLKLGDVFQFLVAHTERHVQQAQRNVPIYE	not soluble
MPVKCPGEYQVDGKKVILDEDCFMQNPEDWDEKVAEWLARELEGIQKMTEEHWKLVKYLREYWETFGSCPPIKMVTKETGFSLEKIYQLFPSGPAHGACKVAGAPKPTGCV	soluble
MGSDKIHHHHHHGNSKSRNDRTETVDKEVIKAPEFDADSAYQYIQVQADFGPRVPNTQAHKECGEYLAGQLEKFGAKVYNQYADLIAYDGTILKSRNIIGAYKPESKKRILLCAHWDSRPYADNDPDPKNHHTPILGVNDGASGVGVLLEIARQIQKEQPALGIDIVFFDSEDYGIPEFYDGKYKQDTWCLGSQYWARTPHVQNYNARYGILLDMVGGKDATFYYEGYSARTARSEMKKIWKKAHELGYGKYFVKEDGGETVDDHIYVNKLARIPCVDIINYDAGNPQSSFGSFWHTVNDTMENIDRNTLKAVGQTVMDVIYNEK	not soluble
MSLRLADFGFTDGINEIIAITENEDGSWNAAPIGIIVEDSSSDTAKAKLYRNRTRANLERSGVLFANVTDDALVFAVSSFGNLNDDWYASPNPPIIKGAMAWCRFEAEMRSGVAHLKLTDGEIIEKRVRAINRGLSAVIEALVHATRYVAIKSDERRKELLERIHYYREIVQKCGSEREKRAFEIIMEKIGEGHHHHHH	soluble
MDAIITGESERIGLSVIDNNDVEHLIETNESGEITYHEQDGYPDDSSKRTDEGNEYVNQARKYAKYYVYLKRGYDTVSAPENPVRIDAVRQAIAQMDLETFETHFGDLYQQFSSETDGSAEPVYDVPPQATTPPIYAQNVYLGIDPLETDLGDELAAKHDLDITAESAADVAIADLSTEEIKQWGEFTGEFATRAIEEQIDLSDAVYIDNTSQLYVKHPEGTDLVAADDHLEPTSREPDTVIELLPIELESLEYFQSFMDHYLRCQIRDVFIEMGVVPPEEFRVLGLGQFMAAHCYSYIDFYPEFHNPESGAFTQQTSLF	not soluble
AHHHHHHGSKRRAVVLFSGGLDSTACLYWAKKQYDEVIMLTVNYGSNEERVTNKVAEYFSKELDVRLKIVKLDFLKEFSEIRGSSLVGGEVPRVTAEELEDIEKASETARSVWIPARNLVLISVAASLLDALGGGDIIVGFNAEEATTFPDNSREFVEKLNEALRFATLNPVKVVAPLIDLDKRGIAKLLKELNAKYEYSNSCYNPKGFTEDGRPIHCGECESCVRRHKGLIEGIGEDKTVYAITPRI	not soluble
MRLLVIIILVAFFLCTTAELMEKRSSMGGSAFGGIDRIPLSYLRKYYRQKTMKRDDNELLDFSPQNSQLGYRSISFWPLY	not soluble
MGSDKIHHHHHHMEPAGVYAKNVQIDRELSQRLHGALTCGKEELFQVVADPAPDVIRAALRNPAMDENHLLVLLGRRDLGEDLVAAIGRHDAVAESHKLKAALVRNPATPAQLVMSLLPHLYLFELVDLCLLAGVTPDQRVAAERAVIQRLSTTPLGNKITLARRATASILDALLKESDVRVVESCLTNPRLKEGSVFQLVSSSRATGDVIAAVARHQCWSNRPNLKAAMLKNPNTPTSLFSTLLASAPTMEVRNLAASGRLGTERKRLAAQELKRRGC	not soluble
MISATYRLQLNKNFNFGDVIDNLWYFKDLGVSHLYLSPVLMASPGSNHGYDVIDHSRINDELGGEKEYRRLIETAHTIGLGIIQDIVPNHMAVNSLNWRLMDVLKMGKKSKYYTYFDFFPEDDKIRLPILGEDLDTVISKGLLKIVKDGDEYFLEYFKWKLPLTEVGNDIYDTLQKQNYTLMSWKNPPSYRRFFDVNTLIGVNVEKDHVFQESHSKILDLDVDGYRIDHIDGLYDPEKYINDLRSIIKNKIIIVEKILGFQEELKLNSDGTTGYDFLNYSNLLFNFNQEIMDSIYENFTAEKISISESIKKIKAQIIDELFSYEVKRLASQLGISYDILRDYLSCIDVYRTYANQIVKECDKTNEIEEATKRNPEAYTKLQQYMPAVYAKAYEDTFLFRYNRLISINEVGSDLRYYKISPDQFHVFNQKRRGKITLNATSTHDTKFSEDVRMKISVLSEFPEEWKNKVEEWHSIINPKVSRNDEYRYYQVLVGSFYEGFSNDFKERIKQHMIKSVREAKINTSWRNQNKEYENRVMELVEETFTNKDFIKSFMKFESKIRRIGMIKSLSLVALKIMSAGIPDFYQGTEIWRYLLTDPDNRVPVDFKKLHEILEKSKKFEKNMLESMDDGRIKMYLTYKLLSLRKQLAEDFLKGEYKGLDLEEGLCGFIRFNKILVIIKTKGSVNYKLKLEEGAIYTDVLTGEEIKKEVQINELPRILVRM	soluble
